The values below come from the nanobody polyreactivity screen of Harvey et al. (2022).

The nature of this series: yeast display, Sf9 membrane polyspecificity reagent, FACS + sequencing; frameworks hold sequencing errors. Put shortly: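 Using colony PCR, genes from sorted yeast display clones were amplified, then sequenced on MiSeq at 2 × 250 and filtered by CDR length. The clones had been stained with 10% biotinylated, detergent-solubilized Sf9 membrane reagent for 1 hour at 4 °C and sorted by FACS into low and high (top ~1%) gates on anti-HA and streptavidin fluorescence. Polyreactivity labels come from the gate of origin.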
Consider “QVQLVESGGGLVQAGGSLRLSCAASGRIFRYYAMGWYIQAPGKERELVAAITRGGSTNYADSVKGRFTISRDNAKNTVYLQMNSLKPEDTAVYYCAARRQGRSGNGSWGQGTQVTVSS”, for which the “polyreactivity (PSR sort gate)” value is “high polyreactivity”.

For “QVQLVESGGGLVQAGGSLRLSCAASGRIFRYYAMGWYRQAPGKERELVAAIRWTAGSTYYADSVKGRFTISRDNAKNTVYLQMNSLKPEDTAVYYCATDVWKYGRYEYWGQGTLVTVSS”, the “polyreactivity (PSR sort gate)” value is reported as “low polyreactivity”.

Take “QVQLVESGGGLVQAGGSLRLSCAASGRIFRYYAMGWYRQAPGKERELVAAISTSGDTTYYADSVKGRFTISRDNAKNTVYLQMNSLKPEDTAVYYCAKPIAPARNAYPAYDYWGQGTQVTVSS”: the “polyreactivity (PSR sort gate)” value was “high polyreactivity”.

With “QVQLVESGGGLVQAGGSLRLSCAASGRIFRYYAMGWYRQAPGKERELVAAISWSGGSTYYADSVKGRFTISRDNAKNTVYLQMNSLKPEDTAVYYCNAYIYRAVPYDYWGQGTQVTVSS”, the “polyreactivity (PSR sort gate)” value was “high polyreactivity”.

As to “QVQLVESGGGLVQAGGSLRLSCAASGRIFRYYAMGWYRQAPGKERELVAAITSDGRTYYADSVKGRFTISRDNAKNTVYLQMNSLKPEDTAVYYCAADHHSYRYGGYYYWGQGTQVTVSS”, the “polyreactivity (PSR sort gate)” value is listed as “low polyreactivity”.

On to “QVQLVESGGGLVQAGGSLRLSCAASGRIFRYYAMGWYRQAPGKERELVAAITSGGNTYYADSVKGRFTISRDNAKNTVYLQMNSLKPVDTAVYYCADGRNLYHFYYWGQGTQVTVSS”, for which the “polyreactivity (PSR sort gate)” value was “high polyreactivity”.

In the case of “QVQLVESGGGLVQAGGSLRLSCAASGRIFRYYAMGWYRQAPGKERELVAGITGSGTTNYADSVKGRFTISRDNAKNTVYLQMNSLKPEDTAVYYCNADRYTFWYRYERGYWGQGTQVTVSS”, the “polyreactivity (PSR sort gate)” value is given as “high polyreactivity”.

With “QVQLVESGGGLVQAGGSLRLSCAASGRIFRYYAMGWYRQAPGKERELVARISWSGGDTYYADSVKGRFTISRDNAKNTVYLQMNSLKPEDTAVYYCNAEAWYSVEYDYWGQGTQVTVSS”, the “polyreactivity (PSR sort gate)” value is reported as “low polyreactivity”.

Consider “QVQLVESGGGLVQAGGSLRLSCAASGRIFRYYAMGWYRQAPGKERELVASINSGGSTYYADSVKGRFTISRDNAKNTVYLQLNSLKPEDTAVYYCAKRVGHSRHADNDYWGQGTQVTVSS”, for which the “polyreactivity (PSR sort gate)” value is “low polyreactivity”.

Turning to “QVQLVESGGGLVQAGGSLRLSCAASGRIFRYYAMGWYRQAPGKERELVATISRSGGSTFYADSVKGRFTISRDNAKNTVYLQMKSLKPEDTAVYYCAADYYSYVVGRIYYWGQGTQVTVSS”, the “polyreactivity (PSR sort gate)” value is reported as “high polyreactivity”.

With “QVQLVESGGGLVQAGGSLRLSCAASGRIFRYYAMGWYRQAPGKERELVAVISSRGGSTFYADSVKGRFTISRDNAKNTVYLQMNSLKPEDTAVYYCASRSLYVGYDYWGQGTQVTVSS”, the “polyreactivity (PSR sort gate)” value was “high polyreactivity”.

Consider “QVQLVESGGGLVQAGGSLRLSCAASGRIFRYYAMGWYRQATGKERELVATITASSGSTYYADSVKGRFTISRDNAKNTVYLQMNSLKPEDSAVYYCAAGFVYRPGSFIRFDYWGQGTQVTVSS”, for which the “polyreactivity (PSR sort gate)” value is reported as “high polyreactivity”.

Turning to “QVQLVESGGGLVQAGGSLRLSCAASGRIFRYYDMGWYRQAPGKEREFVAAITRSGAITYYADSVKGRFTISRDNAKNTVYLQMNSLKPEDTAVYYCAARYWAKFGYWGQGTQVTVSS”, the “polyreactivity (PSR sort gate)” value is reported as “low polyreactivity”.

Turning to “QVQLVESGGGLVQAGGSLRLSCAASGRIFRYYMGWYRQAPGKERELVAVISSGGRTKYADSVKGRFTISRDNAKNTVYLQMNSLKPEDTAVYYCAARYPREAAYGFDYWGQGTQVTVSS”, the “polyreactivity (PSR sort gate)” value is “high polyreactivity”.

In the case of “QVQLVESGGGLVQAGGSLRLSCAASGRIFRYYTMGWYRQAHGKEREFVATITSSGGSTNYADSVKGRFTISRDNAKNSVYIQTNSLKPEDTAVYYCAKTSRAPWDGYYWGEGTQVTVSS”, the “polyreactivity (PSR sort gate)” value is “low polyreactivity”.

As for “QVQLVESGGGLVQAGGSLRLSCAASGRIFRYYTMGWYRQAPGKERELVAAINSSCGSTYYADSVKGRFTISRDNAKNTVYLQMNSLIAEDTAVYYCNAVGYTGRYQFWRVWDVHGDYWGQGNQVTVSS”, the “polyreactivity (PSR sort gate)” value is “high polyreactivity”.

Consider “QVQLVESGGGLVQAGGSLRLSCAASGRIFRYYTMGWYRQAPGKERELVAAISWTGGRTYYADSVKGRFTISRDNAKNTVYLQMNSLKPEDTAVYYCAATNRYYIFDYWGQGTQVTVSS”, for which the “polyreactivity (PSR sort gate)” value is listed as “high polyreactivity”.

Regarding “QVQLVESGGGLVQAGGSLRLSCAASGRIFSANAMGWYRQAPGKERELVAISWTGGSTYYADSVKGRFTISRDNAKNTVYLQMNSLKPEDTAVYYCAKERYGKYFGSVDYWGQGTQVTVSS”, the “polyreactivity (PSR sort gate)” value is “low polyreactivity”.

Turning to “QVQLVESGGGLVQAGGSLRLSCAASGRIFSAYAMGWYRPAPGKERELVAAISWSGGSTYYADSVKGRFTISRDNAKNTVYLQMNSLKPEDTAVYYCAADYFYTSWYQHDYWGQGTQVTVSS”, the “polyreactivity (PSR sort gate)” value is listed as “low polyreactivity”.

As to “QVQLVESGGGLVQAGGSLRLSCAASGRIFSDYAMGWYRQAPGKERELVAVISWDGTNTYYADSVKGRFTISRDNAKNTVYLQMNSLKPEDTAVYYCAATGTSYYSAYDYWGQGTQVTVSS”, the “polyreactivity (PSR sort gate)” value was “low polyreactivity”.

On to “QVQLVESGGGLVQAGGSLRLSCAASGRIFSDYVMGWYRQAPGKERELVADITGGGSTYYADSVKGRFTISRDNAKNTVYLQMNSLKPEDTAVYYCAARVYSYWDRSQRYYYCGQGTQVTVSS”, for which the “polyreactivity (PSR sort gate)” value is “high polyreactivity”.

Take “QVQLVESGGGLVQAGGSLRLSCAASGRIFSENAMGWYRQAPGKERELVAAISVSGGSTYYADSVKGRFTISRDNAKNTVYLQMNSLKPEDTAVYYCAAEYLAYYSGYDYWGQGTQVTVSS”: the “polyreactivity (PSR sort gate)” value was “high polyreactivity”.

Take “QVQLVESGGGLVQAGGSLRLSCAASGRIFSFNARGWYRPAPGKETELVAGITYGGNTYYADSVKGRFTISRDNAKNTVYLQMNSLKPEDTAVYYCAADGVYDQNLYGFWGQGTQVTVSS”: the “polyreactivity (PSR sort gate)” value is “low polyreactivity”.

For the sequence “QVQLVESGGGLVQAGGSLRLSCAASGRIFSFNGMGWYRPAPGKERELVAAITSSGGRTYYADSVKGRFTISRDNAKNTVYLQMNSLIPEDTAVYYCAAELAWDYYWGQGTQVTVSS”, the “polyreactivity (PSR sort gate)” value is listed as “low polyreactivity”.

“QVQLVESGGGLVQAGGSLRLSCAASGRIFSFYAMGWYRQAPGKERELVATISDGGATTYYADSVKGRFTISRDNAKNTVYLQMNSLKPEDTAVYYCNARRESYYQRYRVDYWGQGTQVTVSS”: the “polyreactivity (PSR sort gate)” value is “low polyreactivity”.

In the case of “QVQLVESGGGLVQAGGSLRLSCAASGRIFSFYAMGWYRQAPGKERELVATISKRAGSTYYADSVKGRFTISRDNAKNTVYLQMNSLKPEDTAVYYCAARKWYYASSRWRDYWGQGTQVTVSS”, the “polyreactivity (PSR sort gate)” value is given as “high polyreactivity”.

In the case of “QVQLVESGGGLVQAGGSLRLSCAASGRIFSGYAMGWYRQAPGKERELVAAITSRSGSTYYADSVKGRFTISRDNAKNTVYLQMNSLKPEDTAVYYCAAEYVRFYWYTSDYWGQGTQVTVSS”, the “polyreactivity (PSR sort gate)” value is on record as “low polyreactivity”.

Regarding “QVQLVESGGGLVQAGGSLRLSCAASGRIFSGYAMGWYRQAPGKERELVAAIYGGGSTNYADSVKGRFTISRDNAKNTVYLQMNSLKPEDTAVYYCATQYWHYPYWLYKYDYWGQGTQVTVSS”, the “polyreactivity (PSR sort gate)” value is “low polyreactivity”.

Regarding “QVQLVESGGGLVQAGGSLRLSCAASGRIFSGYTMGWYRQAPGKERELVAAIRVGGGRTYYADSVKGRFTISRDNSKNTVYLQMYSLKPEDTAVYYCAKLYIRHGYDYWGQGTQVTVSS”, the “polyreactivity (PSR sort gate)” value is reported as “low polyreactivity”.

Turning to “QVQLVESGGGLVQAGGSLRLSCAASGRIFSGYTMGWYRQAPGKERELVAAITRSGGSTYYADSVKGRFTISRDNAKNTVYLQMNSLKPEDTAVYYCNKVSYRRMDSWGQGTQVTVSS”, the “polyreactivity (PSR sort gate)” value was “high polyreactivity”.

Take “QVQLVESGGGLVQAGGSLRLSCAASGRIFSHYDLGWYRQAPGKEREVVAAISSGGITYYADSVKGRFTISRDNAKNTVYLQRNSLKPEDTAVYYCAAVRRRGTTYDYWGQGTQVTVSS”: the “polyreactivity (PSR sort gate)” value is reported as “high polyreactivity”.

Consider “QVQLVESGGGLVQAGGSLRLSCAASGRIFSINAMGWYRQAPGKEREFVATISDRGSTTSYADSVKGRFTISGDNAKNTVDLQMNSLKPDDTAVYYCAARSYYRYDYWGQGTQVTVSS”, for which the “polyreactivity (PSR sort gate)” value is “high polyreactivity”.

“QVQLVESGGGLVQAGGSLRLSCAASGRIFSINAMGWYRQAPGKERELVAAITSRGTSTYYADSVKGRFTISRDNAKNTVYLQMNSMKPEDTAVYYCAKKYVGGPWPRYFWGQGTQVTVSS”: the “polyreactivity (PSR sort gate)” value was “high polyreactivity”.

In the case of “QVQLVESGGGLVQAGGSLRLSCAASGRIFSIYAMGWYRQAPGKERELVAAIRSRGGRTHYADSVKVRFTISRDNAKNTVYLQMNSLKPEDTAVYFCNAKYFSGDNYWGQGTQVTVSS”, the “polyreactivity (PSR sort gate)” value is “high polyreactivity”.

Take “QVQLVESGGGLVQAGGSLRLSCAASGRIFSKNAMGWCRQAPGKERELVAGITSISGSTYYADSVKGRFTISRDNAKNTVYLQMNSLKPEDTAVYYCAARFPHRHYLLYTYDYWGQGTQVTVSS”: the “polyreactivity (PSR sort gate)” value is “low polyreactivity”.

For the sequence “QVQLVESGGGLVQAGGSLRLSCAASGRIFSKYAMGWYRQAPGKEREFVASISYRGGSTYYADSVKGRFTISRDNAKNTVYLQMNSLKPEDTAVYYCATRKYADRESDYWGQGTQVTVSS”, the “polyreactivity (PSR sort gate)” value is recorded as “high polyreactivity”.

With “QVQLVESGGGLVQAGGSLRLSCAASGRIFSKYAMGWYRQAPGKERELVAAISNGGSTNYADTVKGRFTISRDNAKNTVYLQMNSLKPEDTAVYYCAKQDRVLYGGYDSWGQGTQVTVSS”, the “polyreactivity (PSR sort gate)” value was “low polyreactivity”.

Regarding “QVQLVESGGGLVQAGGSLRLSCAASGRIFSKYAMGWYRQAPGKERELVAAITSGGRTYYADSVKGRFTISRDNAKNTVYLQMNSLIPEDTAVYYCAARYVQVVRKFGYWGQGTQVTVSS”, the “polyreactivity (PSR sort gate)” value is reported as “high polyreactivity”.

Regarding “QVQLVESGGGLVQAGGSLRLSCAASGRIFSLNVMGWYRPAPGKERELVATIRGRGTSTYYADSVKGRFTISRDNAKNTVYLQMNSLKPEDTAVYYCAARGHGAYGYWGQGTQVTVSS”, the “polyreactivity (PSR sort gate)” value was “low polyreactivity”.

For the sequence “QVQLVESGGGLVQAGGSLRLSCAASGRIFSLYAMGWYRQAPGKERELDAAITWSSGSTYYADSVKGRFTISRDNAKNTVYLQMNSLKPEDTAVYYCAARVFTLLGYSFEYWGQGTQVTVSS”, the “polyreactivity (PSR sort gate)” value is recorded as “low polyreactivity”.

Consider “QVQLVESGGGLVQAGGSLRLSCAASGRIFSNNAMGWYRQAPGKERELVAAISSSGSTYYADSVKGRFTISRDNAKNTVYLLMNSLKPEDTAVYYCAVVYGYPYLRGYVYGFNYWGQGTQVTVSS”, for which the “polyreactivity (PSR sort gate)” value was “low polyreactivity”.
